The text below walks through data of publication PMC8231094.

pKd: −log10 of the molar value.

The pKd is the negative decadic logarithm of the Kd, by convention in mol/L. Low readings indicate a high Kd, high ones a low Kd.

The test addresses rabbit muscle actin (rabbit) (UniProt P68135). As to the kind of experiment: SPR; Biacore X100; rabbit muscle actin (10 ug/ml) covalently coupled to a CM5 chip by EDC/NHS, control lane without actin subtracted; formin fragments injected at 12.3 nM to 1 uM (1:3 serial dilution), 120 s injection, 600 s dissociation, 30 ul/min, 25 degrees; running buffer 10 mM HEPES pH 7.4, 150 mM NaCl, 3 mM EDTA, 10 mM MgCl2, 0.2 mM ADP, 0.5 mM DTT. Background: In SPR one partner is held on a chip, and binding of the other changes the refractive index at the surface.

“SYMBIOTIC FORMIN 1 (SYFO1) FH1FH2 domain (domain or fragment)” showed a pKd of 7.26.
